Measured values taken from patent publication US12624096B2, “Anti-tau antibodies and methods of use thereof” (GTInvent Limited, priority 2020, dated 2026).
Entries after “also recorded” stand apart in the source; their conditions may differ.

Experiments:
[1] = tested on: tau protein in brain homogenate; test: Capture ELISA on transgenic mouse brain lysates; format: binding; conditions: S1D12 mAb capture; WT, L1, L66+/- and L66+/+
Protocol: Mouse brain lysates were prepared from wildtype, Line 1, Line 66+/+ and Line 66+/− (Melis et al., 2015, all surplus from Charles River, part of study R0144). All animals were female, 7-8 months old except Line 66+/+ which were 5 months old. […] The L1 cDNA construct (FIG. 23) contains human tau cDNA coding for amino acid residues 296-390 with a signal sequence and related sequences in a murine Thy-1 expression cassette. For brain lysate preparation, half brains were sectioned into four and the individual sections were homogenised in 400 μl of ice cold RIPA buffer (Cell signalling Technology) containing protease and phosphatase inhibitors. Total protein concentrations for individual samples were established by BCA-assay and each sample was subsequently diluted to 1 mg/ml for future experiments.
For capture ELISA, 100 µL S1D12 capture mAb was used to coat a nunc 96 well Maxisorp plate at 1 μg/ml and incubated for 1 hour at 37° C. Plate was washed as previously and then blocked for 1 hour at 37° C., in 2% MPBS. Brain homogenate samples (50 ng total protein) from each mouse type were added to the first wells and double diluted across the plate in PBS. These samples were left to incubate at RT for 1 hour. Various detection scAbs encompassing epitopes of interest were then added to the plate at 1 μg/ml and incubated for 1 h at RT. […]

dGAE aggregates = dGAE aggregates (Homo sapiens, UniProt P10636); test: Sandwich ELISA on SDS/Triton X-100 treated dGAE aggregates; format: binding
Sequence of dGAE aggregates (P10636 614-708): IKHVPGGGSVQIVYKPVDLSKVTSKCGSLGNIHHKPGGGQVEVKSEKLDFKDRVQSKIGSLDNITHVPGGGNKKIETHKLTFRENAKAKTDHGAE
Protocol: For aggregation, 1000 μL 100 μM dGAE+10 μL 10 mM DTT was added to a ‘LoBind’ microfuge tubes and agitated at 700 RPM/37° C., for 24 hours. Resulting sample centrifuged at 17,000×g/4° C., for 60 min and supernatant discarded to remove left over monomer. Pellet resuspended in half the original volume for future experiments and hereafter referred to as ‘aggregates’. 1 μl of aggregates was added to 1 ml of PBS and SDS was added to a final concentration of 1% (w/v). This was left to incubate on lab bench for 1 h with gentle agitation every 15 minutes. In order to neutralise the SDS effect on ELISA, Triton X-100 added to a final concentration of 3% (v/v) and mixed gently by pipetting to prevent any bubble formation. […] Similarly aggregates treated with only SDS or Triton X-100, untreated aggregates, dGAE monomers treated with only SDS or SDS+Titon X-100 were also added to designated wells as controls. All samples were then double diluted across the plate in final volumes of 100 μl. The final column was left with no protein to act as a blank. This was allowed to stand at room temperature for 1 hour followed by the addition of detection scAb-S1G2 at 10 μg/ml. Anti-HuCk HRP labelled secondary antibody was added as described previously and ELISA data generated was represented using the graph below. In addition, limits of detection (LoD) of various core binding antibody pairing for SDS Triton X-100 treated dGAE aggregates were calculated using the above describe ELISA method and substituting capture mAbs and detection scAbs as shown in Table 30.

htau40 = htau40 (Homo sapiens, UniProt P10636); test: Biacore X100 SPR of anti-tau mAbs on immobilised htau40; format: binding; conditions: mAb, Table 27, immobilised hT40
Sequence of htau40 (P10636 1-441 isoform P10636-8): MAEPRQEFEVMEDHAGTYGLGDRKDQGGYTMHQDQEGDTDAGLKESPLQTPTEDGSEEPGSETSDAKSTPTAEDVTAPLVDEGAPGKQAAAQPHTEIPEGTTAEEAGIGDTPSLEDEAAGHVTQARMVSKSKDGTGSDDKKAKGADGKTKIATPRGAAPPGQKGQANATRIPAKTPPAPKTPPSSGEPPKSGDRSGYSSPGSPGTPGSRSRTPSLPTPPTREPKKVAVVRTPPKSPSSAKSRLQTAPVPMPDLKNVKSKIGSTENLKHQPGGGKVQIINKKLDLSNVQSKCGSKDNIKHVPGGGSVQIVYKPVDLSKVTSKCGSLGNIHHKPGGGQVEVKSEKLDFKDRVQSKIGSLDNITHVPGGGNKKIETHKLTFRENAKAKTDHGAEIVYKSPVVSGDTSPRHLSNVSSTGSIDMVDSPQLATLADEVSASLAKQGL
Method in brief: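 htau40 amine-coupled to a CM5 chip (~250 RU); mAb injected at 0.78–25 nM in HBS-EP+ at 30 μL/min, 120 s association, 600 s dissociation, glycine pH 1.5 regeneration. Kinetics and affinity from 1:1 binding fit with reference-cell subtraction.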

dGAE = dGAE (Homo sapiens, UniProt P10636); test: dGAE fibril assembly, Thioflavin S fluorescence; format: biochemical; conditions: 25 and 100 μM dGAE, ratios 4:1 or 1:1
Sequence of dGAE (P10636 614-708): as the sequence (P10636 614-708) above
Protocol: dGAE protein was diluted into 10 mM phosphate buffer, pH 7.4 (PB) with monoclonal antibody s1D12 at a ratio of 4:1 protein: Ab (100 μM dGAE+25 μM s1D12 and 10 μM dGAE+2.5 μM s1D12) or 1:1 (25 μM dGAE+25 μM s1D12).
As a positive control, dGAE was prepared at a final concentration of 10, 25 or 100 μM in 10 mM PB. Negative controls consisted of dGAE with a non-tau IgG antibody at a ratio of 4:1 (10 μM dGAE+2.5 μM anti-ovalbumin), or antibody alone (25 or 2.5 μM s1D12 and 2.5 μM anti-ovalbumin). Samples were agitated at 700 rpm at 37° C., for 3 days.
For CD, 60 μL sample was placed in a 0.1 mm quartz cuvette and placed into a JASCO spectropolarimeter. 100 μL ThS in 20 mM MOPS buffer was added to 50 μL of each sample to a final concentration of 20 μM, mixed well, incubated at room temperature for 10 minutes then fluorescence intensity measured in a Cary Eclipse spectrophotometer using an excitation wavelength of 440 nm. Baseline readings from 10 mM PB were subtracted from CD and ThS measurements.

Row | Molecule | tau detection in mouse brain homogenate [1] | LoD (dGAE aggregates; S1D12 mAb capture, untreated dGAE agg.) [ng/mL] | LoD (dGAE aggregates; direct immobilisation of dGAE aggregates, +SDS Triton) [ng/mL] | ka (htau40) [M⁻¹ s⁻¹] | kd (htau40) [s⁻¹] | ThS fluorescence signal at 483 nm (dGAE)
1 | S1G2: anti-tau clone, SEQ ID NO: 81 (protein, S1G2 amino acid sequence) scFv: QVQLQESGPSLVKPSQTLSLTCTVSGFSLTSNSVGWVRQAPGKAPEWVAGIDTDGEEGYNPALNSRLSITRDTSKSQVSLSLSSVTSEDTAVYYCGRSYRADGLAYGYVQAIDYWGPGLLVTVSSEGKSSGASGESKVDDQAVVTQPSSVSGSLGQRVSITCSGSFIGISSVGWFQQLPGSGLRTIIVASDGRPSGVPDRFSMSKSGNTATLTISSLQAEDEADYFCGSSDRTPYTGVFGSGTRLTVLG | tau protein was detected in 50 μg of total brain protein in all four different sample types | 250 | 16 | 339800 | 4.748e-05 | –
2 | S1D12: anti-tau clone from immunised sheep, SEQ ID NO: 32 (protein, S1D12 amino acid sequence) scFv: QVQLQESGPSLVKPSQTLSLTCTVSGFSLNNNAVGWVRQAPGKVPESLVGCSSDGTCYYNSALKSRLDITRDTSKNQISLSLSSVTTDDAAVYYCTRGHYSIYGYDYLGTIDYWGPGLLVTVSSEGKSSGASGESKVDDQAVLTQPSSVSGSLGQRVSITCSGSSSNVGGGNSVGWYQHLPGSGLKTIIYDTNSRPSGVPDRFSGSRSGNTATLTINSLQAEDEGDYYCVTGDSTTHDDLVGSGTRLTVLG | – | – | – | 405800 | 4.093e-05 | this signal was abolished; also recorded: abolished when s1D12 is included in the assembly mixture
